Test results published in US20240002541A1 (Johns Hopkins, published 2024).

Experiments:
TRBC1 = molecular target: T1, TRBC1 (UniProt P01850 1-130, limits assumed); assay: not stated (column 'Affinity' of Table 1)
T1 construct: The antigen construct is not described; also called T cell receptor β chain constant 1; Cβ1 TCR

TRBV12-3 on Jurkat cells [1] = molecular target: T2, TRBV12-3 on Jurkat cells (human, UniProt P01733 22-115); assay: cell-based or functional assay
T2 sequence (TCR beta, looked up): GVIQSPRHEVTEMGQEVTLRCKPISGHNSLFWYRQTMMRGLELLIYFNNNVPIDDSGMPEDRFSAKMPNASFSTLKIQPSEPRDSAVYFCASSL

TRBV12-3 on Jurkat cells [2] = molecular target: T2, TRBV12-3 on Jurkat cells; assay: cell-based or functional assay; remark: listed apart in the source
TRBV5-5 = molecular target: T3, TRBV5-5 (UniProt A0A597 22-114, limits assumed); assay: not stated (column 'Affinity' of Table 1)
T3 construct: The antigen construct is not described; also called T cell receptor β chain variable 5-5
T3 sequence (TCR beta, looked up): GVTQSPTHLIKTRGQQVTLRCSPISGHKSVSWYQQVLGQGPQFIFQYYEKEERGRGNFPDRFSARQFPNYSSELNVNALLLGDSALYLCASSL

TRBV12 = molecular target: T4, TRBV12; assay: not stated (column 'Affinity' of Table 1)
T4 chain: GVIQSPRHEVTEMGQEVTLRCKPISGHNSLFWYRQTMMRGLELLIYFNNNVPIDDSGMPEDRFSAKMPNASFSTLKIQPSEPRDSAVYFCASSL

CD3 = molecular target: T5, CD3 (UniProt P07766 23-126); assay: not stated (column 'Affinity' of Table 1)
T5 construct: The antigen construct is not described; also called cluster of differentiation 3; CD3ε subunit

CD19 = molecular target: T6, CD19 (UniProt P15391 20-291, limits assumed); assay: not stated (column 'Affinity' of Table 1)
T6 construct: The antigen construct is not described
T6 sequence (looked up): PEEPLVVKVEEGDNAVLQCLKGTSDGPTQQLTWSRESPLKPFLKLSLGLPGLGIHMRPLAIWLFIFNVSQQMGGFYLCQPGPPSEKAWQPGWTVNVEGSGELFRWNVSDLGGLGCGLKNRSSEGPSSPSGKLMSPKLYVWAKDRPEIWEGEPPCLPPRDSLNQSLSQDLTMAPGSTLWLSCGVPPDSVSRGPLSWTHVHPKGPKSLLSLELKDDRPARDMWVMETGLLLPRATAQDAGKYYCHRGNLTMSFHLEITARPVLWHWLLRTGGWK

[3] = molecular target: T7, TRBV5-5 on human T cells and HPB-ALL cells (human, UniProt A0A597 22-114); assay: cell-based or functional assay
T7 sequence (TCR beta, looked up): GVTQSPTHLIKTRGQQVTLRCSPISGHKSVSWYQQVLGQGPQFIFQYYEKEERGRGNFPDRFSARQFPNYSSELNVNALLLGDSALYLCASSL

[4] = molecular target: T7, TRBV5-5 on human T cells and HPB-ALL …; assay: cell-based or functional assay; remark: listed apart in the source

T1 sequence (P01850 1-130 limits assumed): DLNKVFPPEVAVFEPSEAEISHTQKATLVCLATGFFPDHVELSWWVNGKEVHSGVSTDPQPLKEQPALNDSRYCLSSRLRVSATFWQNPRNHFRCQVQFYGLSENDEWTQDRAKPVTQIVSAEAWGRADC
T5 sequence (P07766 23-126): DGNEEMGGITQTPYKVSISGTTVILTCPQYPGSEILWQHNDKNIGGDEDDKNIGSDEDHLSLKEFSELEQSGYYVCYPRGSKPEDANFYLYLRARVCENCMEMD

B1: α-TRBC1 scFv (clone Jovi-1) (scFv, V domains shown)
VH: EVRLQQSGPDLIKPGASVKMSCKASGYTFTGYVMHWVKQRPGQGLEWIGFINPYNDDIQSNERFRGKATLTSDKSSTTAYMELSSLTSEDSAVYYCARGAGYNFDGAYRFFDFWGQGTTLTVSS
VL: DVVMTQSPLSLPVSLGDQASISCRSSQRLVHSNGNTYLHWYLQKPGQSPKLLIYRVSNRFPGVPDRFSGSGSGTDFTLKISRVEAEDLGIYFCSQSTHVPYTFGGGTKLEIKR
notes: also called anti-TRBC1 scFv
- Kd (TRBC1): 0.4 nM

B2: anti-TRBV12 BsAb (α-V12) (bispecific antibody)
chain: ENVLTQSPAIMSASLGEKVTMSCRASSSVNYIYWYQQKSDASPKLWIYYTSNLAPGVPTRFSGSGSGNSYSLTISSMEGEDAATYYCQQFTSSPFTFGQGTKLEIKGGGGSEVQLVESGGGLVQPGGSLRLSCAASGYSFTGYTMNWVRQAPGKGLEWVALINPYKGVSTYNQKFKDRFTISVDKSKNTAYLQMNSLRAEDTAVYYCARSGYYGDSDWYFDVWGQGTLVTVSSGGGGSGGGGSGGGGSDIQMTQSPSSLSASVGDRVTITCRASQDIRNYLNWYQQKPGKAPKLLIYYTSRLESGVPSRFSGSGSGTDYTLTISSLQPEDFATYYCQQGNTLPWTFGQGTKVEIKGGGGSDVQLVESGGGLVQPGGSRKLSCAASGFTFSNFGMHWVRQAPDKGLEWVAYISSGSSTIYYADTLKGRFTISRDNPKNTLFLQMTSLRSEDTAMYYCARRGEGAMDYWGQGTSVTVSSHHHHHH
- EC50 of the loss of Jurkat viability (luminescence), 5x10^4 Jurkat cells with 5x10^4 normal human T cells, 17 hours (TRBV12-3 on Jurkat cells [1]): 0.00078 nM
- EC50 of GM-CSF release (Luminex), Jurkat WT + T cells, 17 hours (TRBV12-3 on Jurkat cells [2]): 0.0121 nM
- EC50 of IFNγ release (Luminex), Jurkat WT + T cells, 17 hours (TRBV12-3 on Jurkat cells [2]): 0.0235 nM
- EC50 of IL2 release (Luminex), Jurkat WT + T cells, 17 hours (TRBV12-3 on Jurkat cells [2]): 0.0205 nM
- EC50 of IL5 release (Luminex), Jurkat WT + T cells, 17 hours (TRBV12-3 on Jurkat cells [2]): 0.0124 nM
- EC50 of TNFα release (Luminex), Jurkat WT + T cells, 17 hours (TRBV12-3 on Jurkat cells [2]): 0.0138 nM

B3: α-TRBV5-5 scFv (clone TM23) (scFv, V domains shown)
VH: QVQLKESGPGLVAPSQSLSITCTVSGFSLTAYGVNWVRQPPGKGLEWLGMIWGDGNTDYNSALKSRLSISKDNSKSQVFLKMNSLQTDDTARYYCARDRVTATLYAMDYWGQGTSVTVSS
VL: DIQMTQTTSSLSASLGDRVTITCSASQGISNYLNWYQQKPDGTVKLLIYYTSSLHSGVPSRFSGSGSGTDYSLTISNLEPEDIATYYCQQYSKLPRTFGGGTKVEIK
notes: also called anti-TRBV5-5 scFv
- Kd (TRBV5-5): 25.2 nM

B4: α-TRBV12 scFv (clone 16G8) (scFv, V domains shown)
VH: DVQLVESGGGLVQPGGSRKLSCAASGFTFSNFGMHWVRQAPDKGLEWVAYISSGSSTIYYADTLKGRFTISRDNPKNTLFLQMTSLRSEDTAMYYCARRGEGAMDYWGQGTSVTVSS
VL: ENVLTQSPAIMSASLGEKVTMSCRASSSVNYIYWYQQKSDASPKLWIYYTSNLAPGVPTRFSGSGSGNSYSLTISSMEGEDAATYYCQQFTSSPFTFGQGTKLEIK
notes: also called anti-TRBV12 scFv
- Kd (TRBV12): 2.6 nM

B5: α-CD3 scFv (clone UCHT1.v9) (scFv, V domains shown)
VH: EVQLVESGGGLVQPGGSLRLSCAASGYSFTGYTMNWVRQAPGKGLEWVALINPYKGVSTYNQKFKDRFTISVDKSKNTAYLQMNSLRAEDTAVYYCARSGYYGDSDWYFDVWGQGTLVTVSS
VL: DIQMTQSPSSLSASVGDRVTITCRASQDIRNYLNWYQQKPGKAPKLLIYYTSRLESGVPSRFSGSGSGTDYTLTISSLQPEDFATYYCQQGNTLPWTFGQGTKVEIK
notes: also called anti-CD3 scFv
- Kd (CD3): 4.7 nM

B6: α-CD19 scFv (clone HD37) (scFv, V domains shown)
VH: QVQLQQSGAELVRPGSSVKISCKASGYAFSSYWMNWVKQRPGQGLEWIGQIWPGDGDTNYNGKFKGKATLTADESSSTAYMQLSSLASEDSAVYFCARRETTTVGRYYYAMDYWGQGTTVTVSS
VL: DIQLTQSPASLAVSLGQRATISCKASQSVDYDGDSYLNWYQQIPGQPPKLLIYDASNLVSGIPPRFSGSGSGTDFTLNIHPVEKVDAATYHCQQSTEDPWTFGGGTKLEIK
notes: also called anti-CD19 scFv
- Kd (CD19): 0.3 nM

B7: anti-TRBV5-5 BsAb (α-V5) (bispecific antibody)
chain: DIQMTQTTSSLSASLGDRVTITCSASQGISNYLNWYQQKPDGTVKLLIYYTSSLHSGVPSRFSGSGSGTDYSLTISNLEPEDIATYYCQQYSKLPRTFGGGTKVEIKGGGGSEVQLVESGGGLVQPGGSLRLSCAASGYSFTGYTMNWVRQAPGKGLEWVALINPYKGVSTYNQKFKDRFTISVDKSKNTAYLQMNSLRAEDTAVYYCARSGYYGDSDWYFDVWGQGTLVTVSSGGGGSGGGGSGGGGSDIQMTQSPSSLSASVGDRVTITCRASQDIRNYLNWYQQKPGKAPKLLIYYTSRLESGVPSRFSGSGSGTDYTLTISSLQPEDFATYYCQQGNTLPWTFGQGTKVEIKGGGGSQVQLKESGPGLVAPSQSLSITCTVSGFSLTAYGVNWVRQPPGKGLEWLGMIWGDGNTDYNSALKSRLSISKDNSKSQVFLKMNSLQTDDTARYYCARDRVTATLYAMDYWGQGTSVTVSSHHHHHH
- EC50 of GM-CSF release (Luminex), HPB-ALL WT + T cells, 17 hours [3]: 0.0423 nM
- EC50 of IFNγ release (Luminex), HPB-ALL WT + T cells, 17 hours [3]: 0.0311 nM
- EC50 of IL2 release (Luminex), HPB-ALL WT + T cells, 17 hours [3]: 0.0945 nM
- EC50 of IL5 release (Luminex), HPB-ALL WT + T cells, 17 hours [3]: 0.0544 nM
- EC50 of TNFα release (Luminex), HPB-ALL WT + T cells, 17 hours [3]: 0.166 nM
- EC50 of the loss of HPB-ALL viability (luminescence), 5x10^4 HPB-ALL cells with 5x10^4 normal human T cells, 17 hours [4]: 0.00209 nM
